Data from patent publication US20220332804A1 (CSL INNOVATION, published 2022).
Residue numbers refer to the chain shown, from its start.

Legend:
Assay in all cases: SPR, KD relative to WT C2;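 note: biacore SPR at 37 °C, anti-C2 mAbs captured via immobilised goat anti-human IgG, C2 alanine or serine surface mutants as analytes, 1:1 model fitted, double-referenced sensograms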
[1] = molecular target: T1, human C2 L453A (human, UniProt P06681 21-752)
T1 sequence: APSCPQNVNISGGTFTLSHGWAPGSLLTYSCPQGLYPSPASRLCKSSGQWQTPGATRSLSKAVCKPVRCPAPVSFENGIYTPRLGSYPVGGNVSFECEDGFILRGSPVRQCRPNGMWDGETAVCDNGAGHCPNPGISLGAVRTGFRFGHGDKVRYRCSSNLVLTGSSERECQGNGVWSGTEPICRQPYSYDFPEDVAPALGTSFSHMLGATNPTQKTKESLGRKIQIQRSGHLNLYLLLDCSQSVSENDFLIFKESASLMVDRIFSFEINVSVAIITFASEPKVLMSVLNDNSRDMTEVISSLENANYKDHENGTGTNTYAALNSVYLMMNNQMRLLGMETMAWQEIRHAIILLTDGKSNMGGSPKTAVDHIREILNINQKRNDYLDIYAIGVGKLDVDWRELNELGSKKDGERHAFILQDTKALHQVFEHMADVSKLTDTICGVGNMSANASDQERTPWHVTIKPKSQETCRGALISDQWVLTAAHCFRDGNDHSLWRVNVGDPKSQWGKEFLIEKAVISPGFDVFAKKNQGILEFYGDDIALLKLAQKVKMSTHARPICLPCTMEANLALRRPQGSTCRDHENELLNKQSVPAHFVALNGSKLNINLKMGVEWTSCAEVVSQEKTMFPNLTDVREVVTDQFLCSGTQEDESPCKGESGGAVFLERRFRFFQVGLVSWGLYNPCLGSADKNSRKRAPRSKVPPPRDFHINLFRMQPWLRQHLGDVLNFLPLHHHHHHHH

[2] = molecular target: T2, human C2 D561A (human, UniProt P06681 21-752)
T2 sequence: T1 sequence with A433L, D541A

[3] = molecular target: T3, human C2 Q489A (human, UniProt P06681 21-752)
T3 sequence: T1 sequence with A433L, Q469A

[4] = molecular target: T4, human C2 D441A (human, UniProt P06681 21-752)
T4 sequence: T1 sequence with D421A, A433L

B1: RF16-226 (antibody, human IgG4 S228P, lambda)
heavy: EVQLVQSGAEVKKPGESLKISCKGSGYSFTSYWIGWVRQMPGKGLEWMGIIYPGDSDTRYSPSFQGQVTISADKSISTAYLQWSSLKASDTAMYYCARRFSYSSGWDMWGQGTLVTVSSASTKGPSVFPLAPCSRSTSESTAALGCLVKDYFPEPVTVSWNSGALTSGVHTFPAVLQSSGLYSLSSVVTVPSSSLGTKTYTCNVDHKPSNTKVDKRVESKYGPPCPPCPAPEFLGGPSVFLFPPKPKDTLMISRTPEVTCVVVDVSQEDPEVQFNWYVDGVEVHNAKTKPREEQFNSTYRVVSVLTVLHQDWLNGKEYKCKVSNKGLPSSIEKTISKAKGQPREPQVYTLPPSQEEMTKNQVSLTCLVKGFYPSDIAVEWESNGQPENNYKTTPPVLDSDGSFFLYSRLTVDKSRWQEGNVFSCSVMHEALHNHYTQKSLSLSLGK
light: SYELTQPPSVSVSPGQTARITCSGDALTSKYVAWYQQKSGLAPLLVIYEDTRRPSGIPAKFSGSSSGSVATLTISGAHGDDEADYYCYSTDASGHQRVFGGGTKLTVLSQPKAAPSVTLFPPSSEELQANKATLVCLISDFYPGAVTVAWKADGSPVKAGVETTKPSKQSNNKYAASSYLSLTPEQWKSHRSYSCQVTHEGSTVEKTVAPTECS
notes: pH-dependent anti-C2 antibody from a phage display library; also called WT
Fold diff [1]: 3 fold | Fold diff [2]: 10 fold | Fold diff [3]: 10 fold | Fold diff [4]: 6 fold
